In PMC3415446:

Experiments:
[1] = target: NDV Ulster HN NA domain (residues 124-616), containing the C-terminal extension (Newcastle disease virus (NDV), strain Ulster); assay: SEC
[2] = target: NDV Ulster HN NA domain (residues 124-616), containing the C-terminal extension (Newcastle disease virus (NDV), strain Ulster); assay: negative-stain electron microscopy
[3] = target: NDV Ulster HN NA domain (residues 124-616), containing the C-terminal extension (Newcastle disease virus (NDV), strain Ulster); assay: SDS-PAGE under non-reducing conditions
[4] = target: NDV Ulster HN NA domain (residues 124-616), containing the C-terminal extension (Newcastle disease virus (NDV), strain Ulster); assay: sucrose density gradient sedimentation
[5] = target: NDV Ulster HN ectodomain (residues 49-616) (Newcastle disease virus (NDV), strain Ulster); assay: SDS-PAGE under non-reducing conditions
[6] = target: NDV Ulster HN ectodomain (residues 49-616) (Newcastle disease virus (NDV), strain Ulster); assay: not stated; ectodomain in solution; method not given

Measured: stoichiometry N

NDV Ulster HN NA domain (residues 124-616), containing the C-terminal extension (domain or fragment)
2: [1] | [2] | [3] | [4]

NDV Ulster HN ectodomain (residues 49-616) (domain or fragment)
2: [5] | [6]
